For this experiment, the target named is Recombinant human ACE2 protein (carrier free) (human, UniProt Q9BYF1). Nature of the experiment: zeta potential.
Recombinant human ACE2 protein (carrier free), sequence (Q9BYF1 18-740): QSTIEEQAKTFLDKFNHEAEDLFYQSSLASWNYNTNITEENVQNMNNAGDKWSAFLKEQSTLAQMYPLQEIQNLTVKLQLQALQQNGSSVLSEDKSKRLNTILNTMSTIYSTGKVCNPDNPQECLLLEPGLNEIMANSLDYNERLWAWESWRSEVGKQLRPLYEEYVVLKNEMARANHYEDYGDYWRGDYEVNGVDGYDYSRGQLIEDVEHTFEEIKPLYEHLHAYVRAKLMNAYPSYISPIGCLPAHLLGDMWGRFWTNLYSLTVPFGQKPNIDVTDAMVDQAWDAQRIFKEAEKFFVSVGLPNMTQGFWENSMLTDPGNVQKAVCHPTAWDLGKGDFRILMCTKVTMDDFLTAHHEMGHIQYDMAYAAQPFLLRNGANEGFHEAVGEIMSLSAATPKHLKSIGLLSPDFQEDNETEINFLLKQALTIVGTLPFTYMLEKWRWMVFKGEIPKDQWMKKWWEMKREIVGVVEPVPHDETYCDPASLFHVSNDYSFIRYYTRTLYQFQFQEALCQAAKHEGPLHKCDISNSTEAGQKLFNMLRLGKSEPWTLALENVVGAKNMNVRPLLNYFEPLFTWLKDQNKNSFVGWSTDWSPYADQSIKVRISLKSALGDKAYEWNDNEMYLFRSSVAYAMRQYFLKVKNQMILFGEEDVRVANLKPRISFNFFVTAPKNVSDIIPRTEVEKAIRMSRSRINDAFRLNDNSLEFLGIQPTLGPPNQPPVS

In the case of VVVGKKGGGDYSHCSPLRYYPWWKCTYPDPEGGG [ACE2-binding Ligand peptide amphiphile (C12-VVVGKK-OEG4-GG-DX600)], the binding result was “binds”.

For the origin of these results see PMC9743467 (Matter, 2022).
